For this experiment, the target named is T1, soluble EGFR (amino acids 1-621) (UniProt P00533 25-645).
T1 construct: range 1-621; Amine-coupled to a CM-5 chip on flowcell 3; also called soluble ErbB1; ErbB-1
Kind of experiment: BIAcore 3000, receptor amine-coupled to CM-5 chip, peptide injected. Here is the method:
Biosensor analyses were performed using a BIAcore™ 3000. A CM-5 (research grade) sensor chip was immobilized with soluble EGFR (amino acids 1-501), soluble EGFR (amino acids 1-621) and soluble ErbB2 (amino acids 1-509) on flowcells 2, 3 and 4, respectively. Immobilizations were performed using amine coupling chemistry in 10 mM Sodium Acetate at pH 4.2. Varying concentrations (1.25 μM, 2.5 μM, 5 μM and 10 μM) of peptides were injected (30 μl) over the sensor surfaces in HBS running buffer (10 mM HEPES, 3.4 mM EDTA, 0.15M NaCl, 0.005% Tween 20, pH 7.4) at a flow rate of 5 μl/min. The surfaces were then regenerated by injecting 10 μl of 10 mM NaOH at a flow rate of 20 μl/min. The resulting sensor curves were subtracted against the blank channel (Flowcell 1) to yield the specific response.
(In general: In SPR one partner is held on a chip, and binding of the other changes the refractive index at the surface.)

Positions of bridges follow the written chain, without caps; N, C: chain ends. No end group written: not given here.

B1: Human NRG2 (1-32) (peptide)
peptide: GHARKCNETAKSYCVNGGVCYYIEGINQLSCK-OH
modifications: disulfide 14-20, 6-31; N-terminus assumed
SMILES: CC[C@H](C)[C@@H]1NC(=O)CNC(=O)[C@H](CCC(=O)O)NC(=O)[C@H]([C@@H](C)CC)NC(=O)[C@H](Cc2ccc(O)cc2)NC(=O)[C@H](Cc2ccc(O)cc2)NC(=O)[C@@H]2CSSC[C@H](NC(=O)[C@H](Cc3ccc(O)cc3)NC(=O)[C@H](CO)NC(=O)[C@H](CCCCN)NC(=O)[C@H](C)NC(=O)[C@H]([C@@H](C)O)NC(=O)[C@H](CCC(=O)O)NC(=O)[C@H](CC(N)=O)NC(=O)[C@@H](NC(=O)[C@H](CCCCN)NC(=O)[C@H](CCCNC(=N)N)NC(=O)[C@H](C)NC(=O)[C@H](Cc3c[nH]cn3)NC(=O)CN)CSSC[C@@H](C(=O)N[C@@H](CCCCN)C(=O)O)NC(=O)[C@H](CO)NC(=O)[C@H](CC(C)C)NC(=O)[C@H](CCC(N)=O)NC(=O)[C@H](CC(N)=O)NC1=O)C(=O)N[C@@H](C(C)C)C(=O)N[C@@H](CC(N)=O)C(=O)NCC(=O)NCC(=O)N[C@@H](C(C)C)C(=O)N2
notes: V8 digestion and mass spectrometry indicate C1-C4 and C2-C3 disulfide bridges; also called hNRG2 (1-32); hNRG2(1-32)
As for B1, the binding result is listed as “no binding (tested: up to 10 uM)”.

Values taken from US20090131308A1 (AGOS BIOTECH, published 2009).
